Patent publication US20100196266A1 (published 2010)

Tests used:
human CD74 on cells [1] = target: T1, human CD74 on cells (human, UniProt P04233 1-296); experiment: indirect flow cytometry, FITC-GAH Fc, Raji cells; none 6.9
T1 construct: whole, on cells
T1 sequence (looked up): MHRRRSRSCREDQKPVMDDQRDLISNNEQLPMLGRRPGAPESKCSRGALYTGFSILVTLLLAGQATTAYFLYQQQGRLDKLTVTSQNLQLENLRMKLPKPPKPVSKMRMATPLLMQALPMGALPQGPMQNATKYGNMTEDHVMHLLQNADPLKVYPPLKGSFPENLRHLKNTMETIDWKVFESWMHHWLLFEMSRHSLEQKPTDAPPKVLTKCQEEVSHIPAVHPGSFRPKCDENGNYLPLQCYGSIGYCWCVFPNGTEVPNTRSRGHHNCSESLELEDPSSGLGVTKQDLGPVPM

human CD74 on cells [2] = target: T1, human CD74 on cells; experiment: indirect FACS, FITC-GAH Fc, Ramos cells; none 3.1
human CD74 on cells [3] = target: T1, human CD74 on cells; experiment: indirect FACS, FITC-GAH Fc, Daudi cells; none 3.1
human CD74 on cells [4] = target: T1, human CD74 on cells; experiment: indirect FACS, FITC-GAH Fc, Namalwa cells; none 2.5
human CD74 on cells [5] = target: T1, human CD74 on cells; experiment: indirect FACS, FITC-GAH Fc, Raji cells; none 6.8
human CD74 on cells [6] = target: T1, human CD74 on cells; experiment: indirect flow cytometry, FITC-GAH Fc, WSU-FSCCL cells; none 2.7
human CD74 on cells [7] = target: T1, human CD74 on cells; experiment: indirect flow cytometry, FITC-GAH Fc, SU-DHL-6 cells; none 4.6
human CD74 on cells [8] = target: T1, human CD74 on cells; experiment: indirect flow cytometry, FITC-GAH Fc, Daudi cells; none 3.2
human CD74 on cells [9] = target: T1, human CD74 on cells; experiment: indirect flow cytometry, FITC-GAH Fc, RL cells; none 2.4
human CD74 on cells [10] = target: T1, human CD74 on cells; experiment: indirect FACS, FITC-GAH Fc, SU-DHL-6 cells; none 4.6
human CD74 on cells [11] = target: T1, human CD74 on cells; experiment: indirect flow cytometry, FITC-GAH Fc, Ramos cells; none 3.1
human CD74 on cells [12] = target: T1, human CD74 on cells; experiment: indirect FACS, FITC-GAH Fc, WSU-FSCCL cells; none 2.6
human CD74 on cells [13] = target: T1, human CD74 on cells; experiment: indirect flow cytometry, Namalwa cells, FITC-GAH; none 2.52
human CD74 on cells [14] = target: T1, human CD74 on cells; experiment: indirect flow cytometry, FITC-GAH Fc, Namalwa cells; none 2.6
human CD20 on cells [15] = target: T2, human CD20 on cells (human, UniProt P11836 1-297); experiment: indirect flow cytometry, FITC-GAH Fc, Raji cells; none 6.9
T2 construct: whole, on cells
T2 sequence (looked up): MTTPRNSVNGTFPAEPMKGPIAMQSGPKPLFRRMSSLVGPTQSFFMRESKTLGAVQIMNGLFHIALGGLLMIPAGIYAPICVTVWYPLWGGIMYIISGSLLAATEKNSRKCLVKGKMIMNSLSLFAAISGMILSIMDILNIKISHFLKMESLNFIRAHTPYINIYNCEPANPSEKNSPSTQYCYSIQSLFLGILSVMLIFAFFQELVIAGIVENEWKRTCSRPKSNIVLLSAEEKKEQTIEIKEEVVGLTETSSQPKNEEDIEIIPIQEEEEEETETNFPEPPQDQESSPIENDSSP

human CD20 on cells [16] = target: T2, human CD20 on cells; experiment: indirect FACS, FITC-GAH Fc, Ramos cells; none 3.1
human CD20 on cells [17] = target: T2, human CD20 on cells; experiment: indirect FACS, FITC-GAH Fc, Daudi cells; none 3.1
human CD20 on cells [18] = target: T2, human CD20 on cells; experiment: indirect FACS, FITC-GAH Fc, Namalwa cells; none 2.5
human CD20 on cells [19] = target: T2, human CD20 on cells; experiment: indirect FACS, FITC-GAH Fc, Raji cells; none 6.8
human CD20 on cells [20] = target: T2, human CD20 on cells; experiment: indirect flow cytometry, FITC-GAH Fc, WSU-FSCCL cells; none 2.7
human CD20 on cells [21] = target: T2, human CD20 on cells; experiment: indirect flow cytometry, FITC-GAH Fc, SU-DHL-6 cells; none 4.6
human CD20 on cells [22] = target: T2, human CD20 on cells; experiment: indirect flow cytometry, FITC-GAH Fc, Daudi cells; none 3.2
human CD20 on cells [23] = target: T2, human CD20 on cells; experiment: indirect flow cytometry, FITC-GAH Fc, RL cells; none 2.4
human CD20 on cells [24] = target: T2, human CD20 on cells; experiment: indirect FACS, FITC-GAH Fc, SU-DHL-6 cells; none 4.6
human CD20 on cells [25] = target: T2, human CD20 on cells; experiment: indirect flow cytometry, FITC-GAH Fc, Ramos cells; none 3.1
human CD20 on cells [26] = target: T2, human CD20 on cells; experiment: indirect FACS, FITC-GAH Fc, WSU-FSCCL cells; none 2.6
human CD20 on cells [27] = target: T2, human CD20 on cells; experiment: indirect flow cytometry, Namalwa cells, FITC-GAH; none 2.52
human CD20 on cells [28] = target: T2, human CD20 on cells; experiment: indirect flow cytometry, FITC-GAH Fc, Namalwa cells; none 2.6
human CD22 on cells [29] = target: T3, human CD22 on cells (human, UniProt P20273 20-847); experiment: indirect FACS, FITC-GAH Fc, Namalwa cells; none 2.5
T3 construct: whole, on cells

human CD22 on cells [30] = target: T3, human CD22 on cells; experiment: indirect flow cytometry, FITC-GAH Fc, SU-DHL-6 cells; none 4.6
human CD22 on cells [31] = target: T3, human CD22 on cells; experiment: indirect FACS, FITC-GAH Fc, SU-DHL-6 cells; none 4.6
human CD22 on cells [32] = target: T3, human CD22 on cells; experiment: indirect FACS, FITC-GAH Fc, WSU-FSCCL cells; none 2.6
human CD22 on cells [33] = target: T3, human CD22 on cells; experiment: indirect flow cytometry, Namalwa cells, FITC-GAH; none 2.52

B1: milatuzumab (hLL1, humanized anti-CD74 mAb) (antibody, V domains shown)
VH: QVQLQQSGSELKKPGASVKVSCKASGYTFTNYGVNWIKQAPGQGLQWMGWINPNTGEPTFDDDFKGRFAFSLDTSVSTAYLQISSLKADDTAVYFCSRSRGKNEAWFAYWGQGTLVTVSS
VL: DIQLTQSPLSLPVTLGQPASISCRSSQSLVHRNGNTYLHWFQQRPGQSPRLLIYTVSNRFSGVPDRFSGSGSGTDFTLKISRVEAEDVGVYFCSQSSHVPPTFGAGTRLEIK
Human CD74 on cells [1]
  Geometric Mean Fluorescence: 95.1
Human CD74 on cells [2]
  Geometric Mean Fluorescence: 23.2
Human CD74 on cells [3]
  Geometric Mean Fluorescence: 48.8
Human CD74 on cells [4]
  Geometric Mean Fluorescence: 7.81
Human CD74 on cells [5]
  Geometric Mean Fluorescence: 95.1
Human CD74 on cells [6]
  Geometric Mean Fluorescence: 8.7
Human CD74 on cells [7]
  Geometric Mean Fluorescence: 17.3
Human CD74 on cells [8]
  Geometric Mean Fluorescence: 48.8
Human CD74 on cells [9]
  Geometric Mean Fluorescence: 7.9
Human CD74 on cells [10]
  Geometric Mean Fluorescence: 17.3
Human CD74 on cells [11]
  Geometric Mean Fluorescence: 23.3
Human CD74 on cells [12]
  Geometric Mean Fluorescence: 8.66
Human CD74 on cells [13]
  GEO MEAN Fluorescence: 10.1
Human CD74 on cells [14]
  Geometric Mean Fluorescence: 7.8

B2: veltuzumab (hA20, humanized anti-CD20 mAb) (antibody, V domains shown)
VH: QVQLQQSGAEVKKPGSSVKVSCKASGYTFTSYNMHWVKQAPGQGLEWIGAIYPGMGDTSYNQKFKGKATLTADESTNTAYMELSSLRSEDTAFYYCARSTYYGGDWYFDVWGQGTTVTVSS
VL: DIQLTQSPSSLSASVGDRVTMTCRASSSVSYIHWFQQKPGKAPKPWIYATSNLASGVPVRFSGSGSGTDYTFTISSLQPEDIATYYCQQWTSNPPTFGGGTKLEIK
Human CD20 on cells [15]
  Geometric Mean Fluorescence: 267
Human CD20 on cells [16]
  Geometric Mean Fluorescence: 204
Human CD20 on cells [17]
  Geometric Mean Fluorescence: 241
Human CD20 on cells [18]
  Geometric Mean Fluorescence: 10.1
Human CD20 on cells [19]
  Geometric Mean Fluorescence: 267
Human CD20 on cells [20]
  Geometric Mean Fluorescence: 8.9
Human CD20 on cells [21]
  Geometric Mean Fluorescence: 1200
Human CD20 on cells [22]
  Geometric Mean Fluorescence: 241
Human CD20 on cells [23]
  Geometric Mean Fluorescence: 128
Human CD20 on cells [24]
  Geometric Mean Fluorescence: 1200
Human CD20 on cells [25]
  Geometric Mean Fluorescence: 204
Human CD20 on cells [26]
  Geometric Mean Fluorescence: 8.91
Human CD20 on cells [27]
  GEO MEAN Fluorescence: 6.28
Human CD20 on cells [28]
  Geometric Mean Fluorescence: 10.1

B3: epratuzumab (hLL2, humanized anti-CD22 mAb) (antibody, V domains shown)
VH: QVQLVQSGAEVKKPGSSVKVSCKASGYTFTSYWLHWVRQAPGQGLEWIGYINPRNDYTEYNQNFKDKATITADESTNTAYMELSSLRSEDTAFYFCARRDITTFYWGQGTTVTVSS
VL: DIQLTQSPSSLSASVGDRVTMSCKSSQSVLYSANHKNYLAWYQQKPGKAPKLLIYWASTRESGVPSRFSGSGSGTDFTFTISSLQPEDIATYYCHQYLSSWTFGGGTKLEIK
Human CD22 on cells [29]
  Geometric Mean Fluorescence: 6.4
Human CD22 on cells [30]
  Geometric Mean Fluorescence: 11
Human CD22 on cells [31]
  Geometric Mean Fluorescence: 11
Human CD22 on cells [32]
  Geometric Mean Fluorescence: 4.1
Human CD22 on cells [33]
  GEO MEAN Fluorescence: 6.76
